Experimental data taken from US20230312682A1 (published 2023).

Assays:
[1] = target: T1, CD47 on the surfaces of cells (human, UniProt Q08722 19-323); assay: cell-based or functional assay
[2] = target: T1, CD47 on the surfaces of cells; assay: flow cytometry on Daudi cells, FITC anti-human Fc
Experimental: The binding capacity of the prepared SIRP-Fc-IgG1 mutants to CD47 on the surfaces of Daudi cells (human lymphoma cells) was determined by flow cytometry. Experimental procedure: After being counted, Daudi cells were inoculated into a 96-well round-bottom culture plate at 2E5 cells/150 μL by using a PBS solution containing 1% bovine serum albumin (BSA). To the 96-well plate described above were added 50 μL of SIRPα-Fc fusion protein mutants serially diluted with the PBS solution. The plate was incubated at room temperature for 1 h and then centrifuged, and the supernatant was discarded. Then the cells were washed twice with PBS. An FITC-labeled goat anti-human (Fc-Specific) antibody (1:1000 diluted with PBS containing 1% BSA) was added. The plate was incubated at room temperature for half an hour and centrifuged, and the cells were washed and then tested for mean fluorescence intensity (MFI) in the FITC channel on a flow cytometer (CytoFLEX Cytometer System, purchased from Beckman Coulter). The experimental data were processed using the software provided with the flow cytometer, and the mean fluorescence intensity was calculated. The data were analyzed and plotted in GraphPad Prism 6, and EC₅₀ was calculated.

[3] = target: T2, CD47-His (human, UniProt Q08722 19-139); assay: ELISA, plate coated with CD47-His, anti-human Fc-HRP detection
T2 construct: also called Human CD47-His; SIRPα-Fc fusion protein's ligand CD47-His
Experimental: Method: Human CD47-His prepared in Example 1.3 was diluted to 100 ng/mL with a sodium carbonate buffer, and then the dilution was added to a microplate at 100 μL per well. The plate was incubated at room temperature for 2 h and washed with PBST. The plate was blocked by adding PBST containing 1% bovine serum albumin (BSA) to each well and incubated at room temperature for 1 h. The plate was washed twice with PBST, and serially diluted antibodies or fusion proteins were added. The plate was incubated for half an hour and washed twice with PBST. A properly diluted HRP-labeled goat anti-human (Fc-Specific) secondary antibody was added, and the plate was incubated for half an hour. After the plate was washed, a color developing solution was added for color development, and the color development was terminated with a stop solution. The OD450 was read using on a microplate reader. The data were analyzed in GraphPad Prism 6 and plotted, and EC₅₀ was calculated.

[4] = target: T1, CD47 on the surfaces of cells; assay: cell-based or functional assay; remark: listed apart in the source
[5] = target: T2, CD47-His; assay: SPR (Biacore 8K), captured on Protein A chip, CD47-His as analyte
Experimental: Biacore is a method commonly used for molecular interaction analysis based on the principle of surface plasmon resonance (SPR for short). Here, Biacore was used to determine the affinity of the SIRP mutants described above and anti-CD47 antibodies for the extracellular end of CD47. Experimental method and procedure: The SIRP mutant or anti-CD47 antibodies were diluted to a concentration of 1 μg/mL with HBS-EP⁺ buffer (pH 7.4, purchased from Cytiva, catalog No. BR-1006-69). […] A 6 M solution of guanidine hydrochloride was used as a regeneration buffer. Sensor Chip Protein A (purchased from Cytiva, catalog No. 29-1275-55) was used to capture antibody on Biacore 8K (purchased from GE Healthcare). Then CD47-His was used as an analyte and allowed to flow over the chip, and an association-dissociation curve was obtained. After the chip was regenerated with the regeneration buffer, another cycle was carried out. The data were analyzed using Biacore 8K Evaluation Software.

B1: anti-CD47B-Hu-IgG1 (antibody, V domains shown)
VH: QVQLVQSGAEVKKPGASVKVSCKASGYTFANHVIHWVRQAPGQGLEWMGYIYPYNDGTKYNEKFKDRVTLTSDKSTSTVYMELSSLRSEDTAVYYCARGGYYTYDDWGQGTLVTVSS
VL: DVVMTQSPLSLPVTLGQPASISCRSSQSLVHSNGKTYLHWYQQRPGQSPRLLIYKVSNRFSGVPDRFSGSGSGTDFTLKISRVEAEDVGVYYCSQSTHVPYTFGQGTKVEIKR
notes: Human IgG1 / kappa
ADCC on Daudi cells with human PBMCs, EC50 [1]: 0.197 nM
ADCC on Daudi cells with human PBMCs, Top (highest degree of ADCC by curve fitting) [1]: 29
EC50 [2]: 0.189 nM
height of top plateau [2]: 3070 MFI
EC50 [3]: 0.0558 nM
height of top plateau [3]: 0.795 OD450
ADCP of Daudi cells by human macrophages, EC50 [4]: 0.019 nM
ADCP of Daudi cells by human macrophages, Top (highest degree of ADCP by curve fitting) [4]: 12.5
Kd [5]: 0.104 nM
koff [5]: 0.00012 s⁻¹
kon [5]: 1.16e+06 M⁻¹ s⁻¹
